Target: T1, ARN (Homo sapiens, UniProt P10275)
T1 construct: The AR has a large N-terminus (ARN); expressed in transfected cells; host or cells: H1299
T1 sequence (P10275 1-559 limits assumed): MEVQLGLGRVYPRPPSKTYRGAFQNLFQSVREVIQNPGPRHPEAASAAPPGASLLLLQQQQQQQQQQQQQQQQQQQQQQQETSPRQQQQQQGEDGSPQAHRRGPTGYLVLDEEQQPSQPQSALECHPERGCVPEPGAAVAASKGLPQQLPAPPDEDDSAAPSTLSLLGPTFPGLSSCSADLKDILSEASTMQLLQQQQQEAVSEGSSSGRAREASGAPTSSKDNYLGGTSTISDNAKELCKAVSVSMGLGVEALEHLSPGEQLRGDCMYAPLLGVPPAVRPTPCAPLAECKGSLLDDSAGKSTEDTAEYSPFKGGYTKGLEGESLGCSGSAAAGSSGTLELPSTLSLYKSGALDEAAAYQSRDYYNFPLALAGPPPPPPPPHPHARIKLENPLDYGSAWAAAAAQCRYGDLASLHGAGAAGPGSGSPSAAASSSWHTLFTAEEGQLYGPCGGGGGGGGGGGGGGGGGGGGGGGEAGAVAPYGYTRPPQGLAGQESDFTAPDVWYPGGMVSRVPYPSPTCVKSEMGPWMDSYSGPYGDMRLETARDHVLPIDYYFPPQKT
T1 sequence (Q92624 1-585 partner): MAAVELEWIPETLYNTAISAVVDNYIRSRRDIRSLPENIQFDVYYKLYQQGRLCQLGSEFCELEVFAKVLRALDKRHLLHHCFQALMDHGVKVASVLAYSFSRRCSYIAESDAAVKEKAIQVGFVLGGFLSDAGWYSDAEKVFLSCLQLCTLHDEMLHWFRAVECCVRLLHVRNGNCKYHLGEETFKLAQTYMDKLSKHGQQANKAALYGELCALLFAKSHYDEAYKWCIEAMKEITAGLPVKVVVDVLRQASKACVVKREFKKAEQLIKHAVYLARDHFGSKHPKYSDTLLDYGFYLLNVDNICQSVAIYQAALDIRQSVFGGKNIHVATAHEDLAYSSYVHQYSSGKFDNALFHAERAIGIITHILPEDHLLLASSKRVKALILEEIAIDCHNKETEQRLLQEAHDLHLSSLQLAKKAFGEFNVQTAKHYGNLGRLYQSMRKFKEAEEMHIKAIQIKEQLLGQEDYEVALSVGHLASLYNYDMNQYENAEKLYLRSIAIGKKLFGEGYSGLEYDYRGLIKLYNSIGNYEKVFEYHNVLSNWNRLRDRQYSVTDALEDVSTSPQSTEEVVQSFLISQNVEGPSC
Experiment: Mammalian two-hybrid assay ARA67 / ARN in H1299 cells
Assay type: cell-based
Conditions: pM-ARA67 and pVP16-ARN, pG5-Luc
Method: H1299 and COS-1 cells were maintained in Dulbecco's modified Eagle's medium (DMEM) (Life Technologies, Inc.) supplemented with 10% heat inactivated fetal bovine serum (FBS). LNCap cells were maintained in RPMI 1640 supplemented with […]. All media contain 100 units penicillin, 100 μg/ml streptomycin and 2 mM L-glutamine. Cells were seeded to a density of 50-60% confluency for transfection. In transfections where H1299 and COS-1 cells were used, the calcium phosphate precipitation method was used as described (Pan H J, et al. 1999. Endocrine 11:321-327) unless otherwise noted. […] In other reporter gene assays, where ligand treatment was required, cell culture media were changed to DMEM containing 10% charcoal-dextran-stripped FBS (CD-FBS) 2 h before transfection. After 16-18 h transfection, cells were treated with medium containing either vehicle or ligands for another 20-24 h and then cells were harvested. With LNCap cells transfection, the cells were treated with fresh RPMI 1640 containing 10% CD-FBS before transfection with SuperFect performed according to the manufacturer's protocol (Qiagen). After transfection, cells were allowed to recover in fresh RPMI 1640 containing 10% CD-FBS for 8-12 h, and then treated with either vehicle or ligands for another 20-24 h before harvesting. Each experiment was repeated at least three times.

- reporter luciferase activity (association with ARN): highly induced
B1: ARA67: AR N-terminal interacting protein of 585 amino acids (SEQ ID NO:1), matches PAT1; functions as a repressor of AR (protein)
chain: T1 sequence (Q92624 1-585 partner)
